In patent publication US20250382344A1, “Soluble GLP1/GIP/NPY2 Receptor Triple Agonists” (Boehringer Ingelheim International GmH, priority 2024, published 2025):
Positions count from the first letter of the chain named. *1 amine or outer side, *2 acyl side, *3 side chain or, on linkers, in order; H or OH if unused. Where no end group is shown, it is not given here. Side-chain parts run from the residue outwards. [ ]: non-standard residue; d: D form. The star is where a group is joined. C18 diacid = O=C(O)CCCCCCCCCCCCCCCCC(=O)*; γGlu = O=C(O)[C@H](CCC(=O)[*:2])N[*:1]; AEEA = NCCOCCOCC(=O)O; Aib = CC(C)(N)C(=O)O

T1: human neuropeptide Y2 receptor (human, UniProt P49146 1-381)
T1 sequence (looked up): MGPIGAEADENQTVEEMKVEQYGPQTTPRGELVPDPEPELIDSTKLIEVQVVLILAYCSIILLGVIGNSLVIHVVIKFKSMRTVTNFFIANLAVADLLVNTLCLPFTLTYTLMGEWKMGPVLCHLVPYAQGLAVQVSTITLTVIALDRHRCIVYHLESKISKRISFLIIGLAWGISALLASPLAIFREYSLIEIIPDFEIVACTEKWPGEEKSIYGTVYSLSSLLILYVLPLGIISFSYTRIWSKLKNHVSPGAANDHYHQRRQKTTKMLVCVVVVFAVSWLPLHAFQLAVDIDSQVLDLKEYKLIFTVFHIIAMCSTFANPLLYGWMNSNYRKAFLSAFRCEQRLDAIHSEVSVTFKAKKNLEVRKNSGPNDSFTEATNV

T2: human GIP receptor (human, UniProt P48546 22-466)
T2 sequence (looked up): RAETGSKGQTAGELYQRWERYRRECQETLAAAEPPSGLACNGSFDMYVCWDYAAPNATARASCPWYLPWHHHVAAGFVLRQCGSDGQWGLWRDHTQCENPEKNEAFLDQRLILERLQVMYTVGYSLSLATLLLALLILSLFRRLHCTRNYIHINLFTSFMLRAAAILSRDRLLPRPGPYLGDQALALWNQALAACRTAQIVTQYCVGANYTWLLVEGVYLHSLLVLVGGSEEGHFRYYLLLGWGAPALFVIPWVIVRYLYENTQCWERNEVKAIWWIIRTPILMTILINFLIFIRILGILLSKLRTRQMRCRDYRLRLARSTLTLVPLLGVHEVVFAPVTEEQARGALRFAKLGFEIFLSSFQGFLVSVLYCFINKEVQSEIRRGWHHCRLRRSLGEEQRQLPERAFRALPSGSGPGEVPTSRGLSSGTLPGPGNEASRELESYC

B1: Compound 137 (peptide)
peptide: YXEGTFTSDYSIXLEKQAQXAFVRHLINKXTRQRY
modifications: Aib at 2, 13, 20, 30; Lys29 epsilon-amino: C18DA-TRX-gGlu-gGlu-gGlu-gGlu-gGlu-gGlu-eLys; C-terminal amide
B2: Compound 147 (peptide)
peptide: B1 peptide with E15D, K16R
modifications: Aib at 2, 13, 20, 30; Lys29 epsilon-amino: C18DA-gGlu-gGlu-gGlu-gGlu-gGlu-gGlu-eLys; C-terminal amide
B3: Compound 129 (peptide)
peptide: Y[Aib]EGTFTSDYSI[Aib]LEEQAQ[Aib]EFVRHLINK([γGlu-γGlu-γGlu-γGlu-C18 diacid])[Aib]TRQRY-NH2
modifications: N-terminus assumed
SMILES: CC[C@H](C)[C@H](NC(=O)[C@H](CC(C)C)NC(=O)[C@H](Cc1c[nH]cn1)NC(=O)[C@H](CCCNC(=N)N)NC(=O)[C@@H](NC(=O)[C@H](Cc1ccccc1)NC(=O)[C@H](CCC(=O)O)NC(=O)C(C)(C)NC(=O)[C@H](CCC(N)=O)NC(=O)[C@H](C)NC(=O)[C@H](CCC(N)=O)NC(=O)[C@H](CCC(=O)O)NC(=O)[C@H](CCC(=O)O)NC(=O)[C@H](CC(C)C)NC(=O)C(C)(C)NC(=O)[C@@H](NC(=O)[C@H](CO)NC(=O)[C@H](Cc1ccc(O)cc1)NC(=O)[C@H](CC(=O)O)NC(=O)[C@H](CO)NC(=O)[C@@H](NC(=O)[C@H](Cc1ccccc1)NC(=O)[C@@H](NC(=O)CNC(=O)[C@H](CCC(=O)O)NC(=O)C(C)(C)NC(=O)[C@@H](N)Cc1ccc(O)cc1)[C@@H](C)O)[C@@H](C)O)[C@@H](C)CC)C(C)C)C(=O)N[C@@H](CC(N)=O)C(=O)N[C@@H](CCCCNC(=O)CC[C@H](NC(=O)CC[C@H](NC(=O)CC[C@H](NC(=O)CC[C@H](NC(=O)CCCCCCCCCCCCCCCCC(=O)O)C(=O)O)C(=O)O)C(=O)O)C(=O)O)C(=O)NC(C)(C)C(=O)N[C@H](C(=O)N[C@@H](CCCNC(=N)N)C(=O)N[C@@H](CCC(N)=O)C(=O)N[C@@H](CCCNC(=N)N)C(=O)N[C@@H](Cc1ccc(O)cc1)C(N)=O)[C@@H](C)O
B4: Compound 130 (peptide)
peptide: Y[Aib]EGTFTSDYSI[Aib]LEEEAQ[Aib]EFVRHLINK([AEEA-AEEA-γGlu-C18 diacid])[Aib]TRQRY-NH2
modifications: N-terminus assumed
SMILES: CC[C@H](C)[C@H](NC(=O)[C@H](CC(C)C)NC(=O)[C@H](Cc1c[nH]cn1)NC(=O)[C@H](CCCNC(=N)N)NC(=O)[C@@H](NC(=O)[C@H](Cc1ccccc1)NC(=O)[C@H](CCC(=O)O)NC(=O)C(C)(C)NC(=O)[C@H](CCC(N)=O)NC(=O)[C@H](C)NC(=O)[C@H](CCC(=O)O)NC(=O)[C@H](CCC(=O)O)NC(=O)[C@H](CCC(=O)O)NC(=O)[C@H](CC(C)C)NC(=O)C(C)(C)NC(=O)[C@@H](NC(=O)[C@H](CO)NC(=O)[C@H](Cc1ccc(O)cc1)NC(=O)[C@H](CC(=O)O)NC(=O)[C@H](CO)NC(=O)[C@@H](NC(=O)[C@H](Cc1ccccc1)NC(=O)[C@@H](NC(=O)CNC(=O)[C@H](CCC(=O)O)NC(=O)C(C)(C)NC(=O)[C@@H](N)Cc1ccc(O)cc1)[C@@H](C)O)[C@@H](C)O)[C@@H](C)CC)C(C)C)C(=O)N[C@@H](CC(N)=O)C(=O)N[C@@H](CCCCNC(=O)COCCOCCNC(=O)COCCOCCNC(=O)CC[C@H](NC(=O)CCCCCCCCCCCCCCCCC(=O)O)C(=O)O)C(=O)NC(C)(C)C(=O)N[C@H](C(=O)N[C@@H](CCCNC(=N)N)C(=O)N[C@@H](CCC(N)=O)C(=O)N[C@@H](CCCNC(=N)N)C(=O)N[C@@H](Cc1ccc(O)cc1)C(N)=O)[C@@H](C)O

What follows are binders tested against human GLP-1 receptor (human, UniProt P43220 24-463) (assay: cell-based or functional assay).

EC50, CreLuc reporter, 100% hP [nM]	EC50, CreLuc reporter, 0.5% hP [nM]	Binder
13.7		B1
2.3	0.3	B2
2.8	0.9	B3
2.3		B4

Each binder was assayed against T1, human neuropeptide Y2 receptor (assay: cell-based or functional assay).

EC50, CreLuc reporter, 0.5% hP [nM]	EC50, CreLuc reporter, 100% hP [nM]	Binder
20.1	46.4	B1
11.1	86.3	B2
213	827	B3
75	789	B4

These binders were tested against T2, human GIP receptor (assay: cell-based or functional assay).

EC50, CreLuc reporter, 0.5% hP [nM]	EC50, CreLuc reporter, 100% hP [nM]	Binder
0.5		B1
0.2	5	B2
0.4	7.1	B3
0.5	10	B4
